What was measured:
[1] = target: …-HLA-A*02:01 single-chain trimer displayed on yeast (human); experiment: flow cytometry of yeast displaying [..]-HLA-A*02:01, 400 nM DMF5 TCR tetramerized on SA-647 against anti-HA; the panel with SA-647 alone gives 10.80 in the same quadrant
[2] = target: …-HLA-A*02:01 single-chain trimer displayed on yeast (human); experiment: flow cytometry histogram of yeast displaying … with HLA-A*02:01, '+' (MA2.1 then secondary antibody); the row '-' gives 5.574 in the same gate
[3] = target: …-HLA-A*02:01 single-chain trimer displayed on yeast (human); experiment: flow cytometry histogram of yeast displaying … with HLA-A*02:01, '+' (MA2.1 then secondary antibody); the row '-' gives 6.542 in the same gate
[4] = target: …-HLA-A*02:01 single-chain trimer displayed on yeast (human); experiment: flow cytometry histogram of yeast displaying … with HLA-A*02:01, '+' (MA2.1 then secondary antibody); the row '-' gives 6.578 in the same gate
[5] = target: …-HLA-A*02:01 single-chain trimer displayed on yeast (human); experiment: flow cytometry histogram of yeast displaying … with HLA-A*02:01, '+' (MA2.1 then secondary antibody); the row '-' gives 6.825 in the same gate
[6] = target: …-HLA-A*02:01 single-chain trimer displayed on yeast (human); experiment: flow cytometry histogram of yeast displaying … with HLA-A*02:01, '+' (MA2.1 then secondary antibody); the row '-' gives 7.270 in the same gate
[7] = target: …-HLA-A*02:01 single-chain trimer displayed on yeast (human); experiment: flow cytometry histogram of yeast displaying … with HLA-A*02:01, '+' (MA2.1 then secondary antibody); the row '-' gives 9.655 in the same gate

Row | percent of yeast SA-647+ HA-488+ (upper right quadrant) [1] | percent of yeast in the MA2.1-positive gate [2] | percent of yeast in the MA2.1-positive gate [3] | percent of yeast in the MA2.1-positive gate [4] | percent of yeast in the MA2.1-positive gate [5] | percent of yeast in the MA2.1-positive gate [6] | percent of yeast in the MA2.1-positive gate [7] | Substance
1 | 55.8 | – | – | – | – | – | – | DMF5 TCR, soluble, multimerized on streptavidin
2 | – | 69 | 55.5 | 74.2 | 74.2 | 68.6 | 73.7 | MA2.1 antibody

Source: US20250042969A1, “ANTIGEN DISCOVERY FOR T CELL RECEPTORS ISOLATED FROM PATIENT TUMORS RECOGNIZING WILD-TYPE ANTIGENS AND POTENT PEPTIDE MIMOTOPES” (The Board of Trustees of the Leland Stanford Junior …, priority 2017, published 2025)
